B1: FBF1 (parent)
chain: LQRASILDMRRDHEEQLQRLKLLK
B2: RHOBTB3 (parent)
chain: STTEGIQLAKELGATYLELHSLDD

Variants of: B1
Experiment: protein stability index of a GFP-peptide fusion (GPS, HEK-293T) (PSI 1-6); higher = more stable
Conditions: c terminus: a fixed tail appended
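Further: lentivirally expressed fusions sorted by FACS into six bins by GFP to DsRed ratio, PSI derived from sequencing read proportions per bin multiplied by bin number.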

Protein stability index of substitutions, site by site:
Q16: S 3.43, P 3.51, G 4.09, W 2.97, A 3.18, E 3.64, I 2.28, Y 2.75, V 3.04, K 3.61, C 3.09, R 2.77, L 2.73, D 4.02, T 3.45, F 1.73, N 3.48, M 1.38, H 2.64
K24: V 1.92, Q 2.68, I 2.28, M 4.03, W 2.1, C 1.98, H 3.44, G 3.2, T 2.87, L 1.87, A 2.19, F 2.65, Y 2.81, N 3.55, D 4.12, S 2.82, R 3.3, P 3.55, E 3.52
L22: Q 4.27, P 4.24, E 4.33, V 3.92, C 3.94, M 3.44, I 3.77, W 3.27, T 4.35, G 3.44, S 4.21, H 4.1, R 3.74, F 3.5, N 4.4, K 3.74, D 3.63, A 3.18, Y 3.15
K21: S 3.21, E 4.02, V 3.07, Y 2.98, I 2.96, G 3.49, R 3.28, N 3.57, Q 3.18, D 3.88, L 3.01, W 2.85, H 3.29, F 2.85, M 3.55, T 3.38, P 4.75, A 3.59, C 2.65
H13: V 2.46, S 3.84, T 3.27, K 2.68, N 3.95, I 2.54, E 4.15, F 3.17, Y 2.83, A 3.89, R 3.19, W 2.38, M 3.13, L 2.36, P 3.33, G 3.25, D 3.69, Q 3.4, C 2.2
L23: W 3, H 4.26, F 3.88, A 4.14, C 4.09, I 3.88, Q 4.15, E 4.8, N 4.54, D 4.62, R 3.94, G 3.94, M 4.21, T 4.03, V 3.69, S 4.42, K 4.22, Y 3.12, P 3.89
R10: N 3.91, I 2.96, M 2.9, T 3.79, W 3.06, S 3.9, V 3.33, F 2.36, Q 3.51, L 2.5, H 3.45, K 3.97, G 3.79, Y 2.59, P 3.53
D12: I 3.2, V 2.94, R 3.05, F 2.74, A 3.41, N 3.78, P 3.38, C 2.51, S 3.31, T 3.69, H 3.3, Q 3.71, G 3.21, E 3.93, Y 3.37, L 2.8, W 2.34, K 3.15, M 2.81
Q18: V 3.11, P 3.26, I 2.47, S 3.19, E 3.3, M 2.86, T 3.36, L 2.92, R 3.37, W 2.45, H 3.02, C 3.1, Y 2.78, F 2.19, D 3.58, G 3.79, K 3.51, N 3.6, A 3.7
L20: V 3.79, Q 4.33, C 4.17, T 4.09, F 3.06, Y 3.83, I 3.3, G 4.34, D 4.45, S 4.11, R 4.13, W 2.78, M 4, H 3.96, E 4.49, P 4.21, K 4.1, A 3.79, N 4.22
R19: I 2.11, E 4.25, C 2.65, S 3.48, T 2.85, V 2.48, M 3.03, D 4.26, Q 3.33, A 3.48, H 2.78, F 1.69, L 2.22, K 3.14, W 2.25, P 3.75, G 3.75, Y 2.72, N 3.89
E15: G 3.56, L 2.56, A 3.4, R 3.22, P 3.22, H 3.09, W 2.29, Q 3.18, I 2.37, Y 2.84, V 3.13, S 2.96, D 3.34, T 3.39, M 3.12, C 2.5, F 2.68, N 2.91, K 3.04
R11: N 3.1, G 3.54, E 3.64, Y 2.68, K 3.7, F 2.89, S 3.43, L 3.44, C 3.36, Q 3.59, A 3.23, H 2.88, W 2.64, I 2.98, V 3.18, T 3.86, P 3.67, D 3.69, M 3.03
E14: W 2.69, M 2.56, Y 3.04, R 2.98, S 2.95, C 2.79, D 3.6, P 2.82, A 3.32, G 3.12, F 2.38, I 3.08, H 3.13, N 2.86, T 2.96, Q 3.49, K 3.43, V 2.69, L 3.17
L17: N 3.91, R 3.54, G 4.03, P 4.63, W 2.96, Y 3.55, I 3.91, F 3.17, A 3.9, D 4.23, K 4.05, M 3.72, H 4, V 3.87, T 4.19, S 3.77, C 3.55, E 4.07, Q 4.52

Variants of: B2
Experiment: as above
Conditions: c terminus: a fixed tail appended

Protein stability index, by site and new letter:
Q7: H 3.99, W 2.5, Y 3.52
L8: D 5.04, S 4.58, W 3.86
L17: M 4.11, C 4.14, R 3.94, I 2.9, K 4.83
T3: S 4.02, K 3.42
G5: C 3.02, F 2.25
A14: K 3.01, D 2.87
T15: M 3.27, C 3.59, V 2.17, N 4.72
E11: F 2.56, K 2.94, P 3.92
Y16: T 4.28, H 4.25
H20: W 1.93, N 4.46
I6: M 3.01, L 2.87, H 4.62
T2: S 3.71, N 4.11
L12: M 4.48
L19: W 4.68, N 5, T 4.96
A9: S 4.24, L 1.19, K 3.6, G 4.34
K10: G 1.71
E4: Y 2.27, G 3.98, S 3.79, F 2.29, H 3.37
E18: L 2.41
S21: F 1.64, W 1.03, G 4
G13: L 1.28
D24: Y 2.7

— the supplement of paper PMC10567573
